Results taken from article PMC6910952 (Nature Communications, 2019).
Substitutions are numbered along the chain they refer to.

Columns and labels:
Experiment in all cases: pull-down; GST-yNpl4 (0.5 μM, wild type or mutant) on Glutathione Sepharose 4B beads, 1 h at room temperature with 0.5 μM yUfd1, 3 μM Cdc48 (0.5 μM hexamer) and 1 μg K48 chains in 100 μL 50 mM Tris-HCl pH 7.5, 100 mM NaCl, 10% glycerol, 0.1% Triton X-100; chains detected by anti-Ub immunoblot, proteins by Ponceau S
Conditions in all cases: both partners purified
[1] = target: T1, GST-yNpl4 T571A (Saccharomyces cerevisiae, UniProt P33755 1-580, T571A)
T1 construct: Npl4 of Saccharomyces cerevisiae (yNpl4), full length; source: E. coli Rosetta (DE3) (pGEX-6P1), purified (Glutathione Sepharose FF, Resource Q); not shown: GST, N-terminal, kept
T1 sequence (looked up): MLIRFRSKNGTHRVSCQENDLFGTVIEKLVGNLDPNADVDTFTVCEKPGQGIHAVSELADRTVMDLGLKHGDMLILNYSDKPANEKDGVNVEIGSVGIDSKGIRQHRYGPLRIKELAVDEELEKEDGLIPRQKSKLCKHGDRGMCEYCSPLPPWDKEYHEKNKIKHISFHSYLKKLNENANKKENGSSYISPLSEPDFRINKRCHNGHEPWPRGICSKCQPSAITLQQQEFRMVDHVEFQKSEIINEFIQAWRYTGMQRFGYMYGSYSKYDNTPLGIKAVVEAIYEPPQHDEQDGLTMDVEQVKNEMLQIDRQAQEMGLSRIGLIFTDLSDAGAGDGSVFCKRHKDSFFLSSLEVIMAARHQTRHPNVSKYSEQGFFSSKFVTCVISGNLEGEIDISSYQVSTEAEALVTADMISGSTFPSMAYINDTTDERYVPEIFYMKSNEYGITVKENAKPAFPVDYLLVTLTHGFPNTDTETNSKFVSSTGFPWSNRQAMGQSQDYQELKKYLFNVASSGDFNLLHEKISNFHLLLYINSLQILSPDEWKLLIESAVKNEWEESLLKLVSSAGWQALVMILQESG

[2] = target: T2, GST-yNpl4 A494F (Saccharomyces cerevisiae, UniProt P33755 1-580, A494F)
T2 construct: Npl4 of Saccharomyces cerevisiae (yNpl4), full length; source: E. coli Rosetta (DE3) (pGEX-6P1), purified (Glutathione Sepharose FF, Resource Q); not shown: GST, N-terminal, kept
T2 sequence (looked up): T1 sequence (looked up) with A494F, A571T

[3] = target: T3, GST-yNpl4 M574Q (Saccharomyces cerevisiae, UniProt P33755 1-580, M574Q)
T3 construct: Npl4 of Saccharomyces cerevisiae (yNpl4), full length; source: E. coli Rosetta (DE3) (pGEX-6P1), purified (Glutathione Sepharose FF, Resource Q); not shown: GST, N-terminal, kept
T3 sequence (looked up): T1 sequence (looked up) with A571T, M574Q

Measured: binding result

B1: yUfd1 (full length, untagged) (natural protein, Saccharomyces cerevisiae, UniProt P53044 1-361, looked up)
chain: MFSGFSSFGGGNGFVNMPQTFEEFFRCYPIAMMNDRIRKDDANFGGKIFLPPSALSKLSMLNIRYPMLFKLTANETGRVTHGGVLEFIAEEGRVYLPQWMMETLGIQPGSLLQISSTDVPLGQFVKLEPQSVDFLDISDPKAVLENVLRNFSTLTVDDVIEISYNGKTFKIKILEVKPESSSKSICVIETDLVTDFAPPVGYVEPDYKALKAQQDKEKKNSFGKGQVLDPSVLGQGSMSTRIDYAGIANSSRNKLSKFVGQGQNISGKAPKAEPKQDIKDMKITFDGEPAKLDLPEGQLFFGFPMVLPKEDEESAAGSKSSEQNFQGQGISLRKSNKRKTKSDHDSSKSKAPKSPEVIEID
notes: Ufd1 of Saccharomyces cerevisiae (yUfd1), full length; codon-optimized synthetic cDNA; removal of GST by HRV3C is surmised; also called untagged Ufd1; source: E. coli Rosetta (DE3) (pGEX-6P1), purified
binds: all assays above
